Some results are limits rather than exact numbers.

We go through 31 molecules from patent US20060020109A1 (Harvard, published 2006).

The target in experiment [1] is soluble recombinant HLA-DR2 molecules (MHC class II HLA-DR2 protein) (human). The experiment in a line: competition ELISA on soluble HLA-DR2; competitor biotinylated Cop 1 (1.5 µM). (An ELISA detects its analyte on a solid surface through an enzyme-linked reagent.)
For experiment [2] the target is unchanged. The experiment in a line: competition ELISA on soluble HLA-DR2; competitor biotinylated MBP 85-99 (0.13 µM).
Experiment [3] has as its target HLA-DR2 (DRB1*1501) on antigen presenting cells (MGAR, L466) (human). Briefly: cell-based or functional assay.
For experiment [4], the target named is T1, soluble recombinant HLA-DR2 molecules (MHC class II HLA-DR2 protein) (human).
T1 construct: Soluble, empty protein from Drosophila S2 cells, captured on plates by antibody LB3.1; also called MHC class II DR2 protein; recombinant HLA-DR2 protein
Briefly: competition ELISA on soluble HLA-DR2; competitor biotinylated Cop 1 (1.5 µM).

Experiment [5] has as its target T1, soluble recombinant HLA-DR2 molecules …. The experiment in a line: competition ELISA on soluble HLA-DR2; competitor biotinylated MBP 85-99 (0.13 µM).
Experiment [6] has as its target T2, soluble recombinant HLA-DR2 molecules (MHC class II HLA-DR2 protein) (human).
T2 chain 1: not shown
T2 chain 2: not shown
Briefly: competition ELISA on soluble HLA-DR2; competitor biotinylated Cop 1 (1.5 µM). Particulars: remark: other sources report otherwise.

Broadly, the IC50 is the concentration that inhibits the measured activity by half. For “Cop 1 (Copolymer 1; poly(Y,E,A,K); Copaxone), unlabeled”, the results for the IC50 in experiment [1] and in experiment [2] were 7 µM and 100 µM, respectively.
As for AKAAAAEYAAAAAAA [synthetic peptide #51], the “Inhibition of IL-2 production (%), Hy1B” value in experiment [3] was found to be 3%. For the same molecule, the IC50 in experiment [4] is more than 1000 µM.
Consider AKKAAEAYAAAAAAA [synthetic peptide #50], for which the “Inhibition of IL-2 production (%), Hy1B” value in experiment [3] came to 22%. Further, the IC50 turned out to be 40 µM in experiment [4] and 10 µM in experiment [5].
For AKKEYAEYKAAAAAA [synthetic peptide #103] the same measures were 49%, less than 1 µM and more than 150 µM.
On the same counts, the results for EAKAYEYAKAAAAAA [synthetic peptide #113] are 30%, less than 1 µM and more than 1000 µM.

B1: synthetic peptide #107 (peptide)
peptide: ENPVVHYFKNIVTPR
notes: Analog of MBP 85-99 with F to Y at the position of MBP residue 91
In the case of B1, the “Inhibition of IL-2 production (%), Hy1B” value in experiment [3] was found to be 64%. The IC50 in experiment [4] is 40 µM; in experiment [5], less than 1 µM.
With AEEAYKAYAAAAAAA [synthetic peptide #53], the “Inhibition of IL-2 production (%), Hy1B” value in experiment [3] came to 13%. In addition, the IC50 in experiment [4] was more than 150 µM; in experiment [5], 150 µM.
For EEKAYAYAKAAAAAA [synthetic peptide #106] the same measures were 39%, 100 µM and more than 1000 µM.
On to AAAEYKAYAAAAAAA [synthetic peptide #70], for which the “Inhibition of IL-2 production (%), Hy1B” value in experiment [3] came to 24%. In addition, in experiment [4], the IC50 is more than 1000 µM.
Turning to AAEEYKAYAAAAAAA [synthetic peptide #61], the “Inhibition of IL-2 production (%), Hy1B” value in experiment [3] came to 35%. Also, the IC50 in experiment [4] was more than 1000 µM.
With AEAEYKAYAAAAAAA [synthetic peptide #66], in experiment [3], the “Inhibition of IL-2 production (%), Hy1B” value was found to be 43%. For the same molecule, in experiment [4], the IC50 is more than 1000 µM.
For AKAAYEAYAAAAAAA [synthetic peptide #64] the same measures were 18% and more than 1000 µM.
Regarding EEAAYAYKKAAAAAA [synthetic peptide #112], the “Inhibition of IL-2 production (%), Hy1B” value in experiment [3] is 32%. The IC50 in experiment [4] was 15 µM; in experiment [5], more than 1000 µM.
For the molecule EEAAYKAAKAAAAAA [synthetic peptide #108], the IC50 in experiment [4] is 2 µM; in experiment [5], more than 1000 µM.
On the same counts, the results for EEAAYKAAKAAAAAA [synthetic peptide #111] are less than 1 µM and more than 1000 µM.
Take AEKAYAAAAAAAAAA [synthetic peptide #43]: in experiment [3], the “Inhibition of IL-2 production (%), Hy1B” value worked out at 0%. Further, in experiment [6], the IC50 was more than 1000 µM.
In the case of AKEAAAAYAAAAAAA [synthetic peptide #45], the “Inhibition of IL-2 production (%), Hy1B” value in experiment [3] stood at 0%. The values for the IC50 in experiment [4] and in experiment [5] were more than 150 µM and 95 µM, respectively.
For EAKAYEAYKAAAAAA [synthetic peptide #95] the same measures were 47%, more than 1000 µM and 40 µM.
On the same counts, the results for AAKAYEAYKAAAAAA [synthetic peptide #93] are 48%, more than 150 µM and 8 µM.
For the molecule AAEKAAAAAAAAAAA [synthetic peptide #119], the “Inhibition of IL-2 production (%), Hy1B” value in experiment [3] was found to be 26%. For the same molecule, the IC50 in experiment [4] is more than 1000 µM.
EKAKYEAYKAAAAAA [synthetic peptide #101]: the “Inhibition of IL-2 production (%), Hy1B” value in experiment [3] was found to be 53%. Moreover, the IC50 in experiment [4] is less than 1 µM; in experiment [5], 3 µM.
With AAEAVAAAAAAAAAA [synthetic peptide #118], in experiment [3], the “Inhibition of IL-2 production (%), Hy1B” value came out at 38%. Also, in experiment [4], the IC50 is more than 1000 µM.
Regarding EAEAYKAYKAAAAAA [synthetic peptide #96], the “Inhibition of IL-2 production (%), Hy1B” value in experiment [3] is 43%. For the same molecule, the IC50 in experiment [4] is more than 1000 µM; in experiment [5], 6 µM.
Turning to AEKAYAAYAAAAAAA [synthetic peptide #52], the “Inhibition of IL-2 production (%), Hy1B” value in experiment [3] was determined as 20%. The IC50 in experiment [4] was more than 150 µM; in experiment [5], 150 µM.
On the same counts, the results for EAAKYEAYKAAAAAA [synthetic peptide #100] are 56%, 2 µM and more than 150 µM.
For AAEKYAEYKAAAAAA [synthetic peptide #104] the same measures were 53%, 20 µM and more than 150 µM.
As for EAAAYKAYKAAAAAA [synthetic peptide #99], the “Inhibition of IL-2 production (%), Hy1B” value in experiment [3] is 57%. Moreover, the figures for the IC50 in experiment [4] and in experiment [5] were more than 150 µM and 5 µM, respectively.
Regarding AAEAYKAYKAAAAAA [synthetic peptide #94], the “Inhibition of IL-2 production (%), Hy1B” value in experiment [3] was determined as 50%. The IC50 in experiment [4] was more than 150 µM; in experiment [5], 3 µM.
As to AAEAYAAAAAAAAAA [synthetic peptide #117], the “Inhibition of IL-2 production (%), Hy1B” value in experiment [3] came to 25%. Besides, the IC50 in experiment [4] was more than 1000 µM.
EAKKYEAYKAAAAAA [synthetic peptide #102]: in experiment [3], the “Inhibition of IL-2 production (%), Hy1B” value amounted to 57%. In addition, the IC50 in experiment [4] worked out at 2 µM; in experiment [5] it was 20 µM.
As to KEEYAAAAAAAAAAA [synthetic peptide #42], in experiment [3], the “Inhibition of IL-2 production (%), Hy1B” value was found to be 49%. For the same molecule, in experiment [4], the IC50 is more than 1000 µM.
